Sequences and labels used below:
B1: Serine/threonine-protein kinase LATS1, residues 98 to 141; numbered along this chain, O95835 (parent)
chain: TSEVNPQMLQDLQAAGFDEDMVIQALQKTNNRSIEAAIEFISKM

± gives the uncertainty stated by the source.

The variants in this data set derive from B1. The data set is described as follows: abundance fitness (aPCA) (normalised: wild type 0, dead -1); higher = more abundant; growth selection in yeast, the domain comes from the species named. The following applies: Homo sapiens.
Take TSEVNPQMLQDLQAAGFDEDMVFQALQKTNNRSIEAAIEFISKM [I23F]: the abundance fitness is -0.261 ± 0.16.
The result for TSEVNPQMLQDLQAAGFDEDMVSQALQKTNNRSIEAAIEFISKM [I23S] reads -0.183 ± 0.038.
The result for TSEVNPQMLQDLQAAGFDEDMVWQALQKTNNRSIEAAIEFISKM [I23W] reads -0.373 ± 0.045.
As for TSEVNPQMLQDLQAAGFDEDMVLQALQKTNNRSIEAAIEFISKM [I23L], the abundance fitness was -0.188 ± 0.044.
The result for TSEVNPQMLQDLQAAGFDEDMVGQALQKTNNRSIEAAIEFISKM [I23G] reads -0.322 ± 0.034.
Turning to TSEVNPQMLQDLQAAGFDEDMVDQALQKTNNRSIEAAIEFISKM [I23D], the abundance fitness was -0.283 ± 0.081.
Take TSEVNPQMLQDLQAAGFDEDMVRQALQKTNNRSIEAAIEFISKM [I23R]: the abundance fitness turned out to be 0.024 ± 0.034.
In the case of TSEVNPQMLQDLQAAGFDEDMVTQALQKTNNRSIEAAIEFISKM [I23T], the abundance fitness is -0.041 ± 0.045.
Regarding TSEVNPQMLQDLQAAGFDEDMVYQALQKTNNRSIEAAIEFISKM [I23Y], the abundance fitness was -0.211 ± 0.064.
As for TSEVNPQMLQDLQAAGFDEDMVQQALQKTNNRSIEAAIEFISKM [I23Q], the figure is -0.158 ± 0.049; as for TSEVNPQMLQDLQAAGFDEDMVHQALQKTNNRSIEAAIEFISKM [I23H], -0.314 ± 0.064; as for TSEVNPQMLQDLQAAGFDEDMVMQALQKTNNRSIEAAIEFISKM [I23M], -0.055 ± 0.045.
With TSEVNPQMLQDLQAAGFDEDMVKQALQKTNNRSIEAAIEFISKM [I23K], the abundance fitness turned out to be 0.041 ± 0.049.
As for TSEVNPQMLQDLQAAGFDEDMVNQALQKTNNRSIEAAIEFISKM [I23N], the figure is -0.104 ± 0.064; as for TSEVNPQMLQDLQAAGFDEDMVPQALQKTNNRSIEAAIEFISKM [I23P], -0.591 ± 0.095; as for TSEVNPQMLQDLQAAGFDEDMVAQALQKTNNRSIEAAIEFISKM [I23A], -0.115 ± 0.043.
As to TSEVNPQMLQDLQAAGFDEDMVVQALQKTNNRSIEAAIEFISKM [I23V], the abundance fitness amounted to 0.039 ± 0.037.
The result for TSEVNPQMLQDLQAAGFDEDMVIEALQKTNNRSIEAAIEFISKM [Q24E] reads 0.083 ± 0.038; that for TSEVNPQMLQDLQAAGFDEDMVIRALQKTNNRSIEAAIEFISKM [Q24R], -0.103 ± 0.033; that for TSEVNPQMLQDLQAAGFDEDMVIPALQKTNNRSIEAAIEFISKM [Q24P], -0.323 ± 0.048.
For TSEVNPQMLQDLQAAGFDEDMVIHALQKTNNRSIEAAIEFISKM [Q24H], the abundance fitness turned out to be 0.055 ± 0.048.
The result for TSEVNPQMLQDLQAAGFDEDMVIMALQKTNNRSIEAAIEFISKM [Q24M] reads -0.028 ± 0.037; that for TSEVNPQMLQDLQAAGFDEDMVISALQKTNNRSIEAAIEFISKM [Q24S], -0.196 ± 0.043; that for TSEVNPQMLQDLQAAGFDEDMVICALQKTNNRSIEAAIEFISKM [Q24C], -0.043 ± 0.042.
As for TSEVNPQMLQDLQAAGFDEDMVILALQKTNNRSIEAAIEFISKM [Q24L], the figure is 0.013 ± 0.036; as for TSEVNPQMLQDLQAAGFDEDMVIAALQKTNNRSIEAAIEFISKM [Q24A], -0.066 ± 0.034.
On to TSEVNPQMLQDLQAAGFDEDMVIYALQKTNNRSIEAAIEFISKM [Q24Y], for which the abundance fitness is -0.222 ± 0.13.
Turning to TSEVNPQMLQDLQAAGFDEDMVITALQKTNNRSIEAAIEFISKM [Q24T], the abundance fitness was found to be 0.009 ± 0.044.
As for TSEVNPQMLQDLQAAGFDEDMVIKALQKTNNRSIEAAIEFISKM [Q24K], the abundance fitness amounted to 0.035 ± 0.06.
On to TSEVNPQMLQDLQAAGFDEDMVIIALQKTNNRSIEAAIEFISKM [Q24I], for which the abundance fitness was -0.015 ± 0.083.
In the case of TSEVNPQMLQDLQAAGFDEDMVIFALQKTNNRSIEAAIEFISKM [Q24F], the abundance fitness turned out to be 0.019 ± 0.13.
The result for TSEVNPQMLQDLQAAGFDEDMVINALQKTNNRSIEAAIEFISKM [Q24N] reads -0.146 ± 0.072.
Consider TSEVNPQMLQDLQAAGFDEDMVIDALQKTNNRSIEAAIEFISKM [Q24D], for which the abundance fitness is -0.005 ± 0.05.
As for TSEVNPQMLQDLQAAGFDEDMVIVALQKTNNRSIEAAIEFISKM [Q24V], the figure is -0.033 ± 0.033; as for TSEVNPQMLQDLQAAGFDEDMFIQALQKTNNRSIEAAIEFISKM [V22F], -0.807 ± 0.17; as for TSEVNPQMLQDLQAAGFDEDMWIQALQKTNNRSIEAAIEFISKM [V22W], -0.796 ± 0.065.
For the variant TSEVNPQMLQDLQAAGFDEDMLIQALQKTNNRSIEAAIEFISKM [V22L], the abundance fitness was -0.538 ± 0.052.
For the variant TSEVNPQMLQDLQAAGFDEDMYIQALQKTNNRSIEAAIEFISKM [V22Y], the abundance fitness was -0.824 ± 0.14.
As for TSEVNPQMLQDLQAAGFDEDMSIQALQKTNNRSIEAAIEFISKM [V22S], the figure is 0.183 ± 0.041; as for TSEVNPQMLQDLQAAGFDEDMMIQALQKTNNRSIEAAIEFISKM [V22M], -0.674 ± 0.066.
For the variant TSEVNPQMLQDLQAAGFDEDMPIQALQKTNNRSIEAAIEFISKM [V22P], the abundance fitness is -0.47 ± 0.05.
Take TSEVNPQMLQDLQAAGFDEDMNIQALQKTNNRSIEAAIEFISKM [V22N]: the abundance fitness is -0.448 ± 0.092.
As for TSEVNPQMLQDLQAAGFDEDMTIQALQKTNNRSIEAAIEFISKM [V22T], the figure is -0.262 ± 0.048; as for TSEVNPQMLQDLQAAGFDEDMRIQALQKTNNRSIEAAIEFISKM [V22R], -0.623 ± 0.051.
As to TSEVNPQMLQDLQAAGFDEDMEIQALQKTNNRSIEAAIEFISKM [V22E], the abundance fitness is -0.355 ± 0.052.
Turning to TSEVNPQMLQDLQAAGFDEDMGIQALQKTNNRSIEAAIEFISKM [V22G], the abundance fitness is -0.008 ± 0.033.
In the case of TSEVNPQMLQDLQAAGFDEDMHIQALQKTNNRSIEAAIEFISKM [V22H], the abundance fitness was -0.618 ± 0.12.
As for TSEVNPQMLQDLQAAGFDEDMQIQALQKTNNRSIEAAIEFISKM [V22Q], the figure is -0.48 ± 0.065; as for TSEVNPQMLQDLQAAGFDEDMVIQKLQKTNNRSIEAAIEFISKM [A25K], -0.684 ± 0.083.
Take TSEVNPQMLQDLQAAGFDEDMVIQHLQKTNNRSIEAAIEFISKM [A25H]: the abundance fitness is -0.937 ± 0.21.
As to TSEVNPQMLQDLQAAGFDEDMVIQMLQKTNNRSIEAAIEFISKM [A25M], the abundance fitness is -0.887 ± 0.1.
For the variant TSEVNPQMLQDLQAAGFDEDMVIQGLQKTNNRSIEAAIEFISKM [A25G], the abundance fitness was -0.443 ± 0.033.
Consider TSEVNPQMLQDLQAAGFDEDMVIQDLQKTNNRSIEAAIEFISKM [A25D], for which the abundance fitness was -0.541 ± 0.088.
As to TSEVNPQMLQDLQAAGFDEDMVIQELQKTNNRSIEAAIEFISKM [A25E], the abundance fitness was -0.668 ± 0.06.
In the case of TSEVNPQMLQDLQAAGFDEDMVIQPLQKTNNRSIEAAIEFISKM [A25P], the abundance fitness was -0.415 ± 0.056.
As for TSEVNPQMLQDLQAAGFDEDMVIQILQKTNNRSIEAAIEFISKM [A25I], the figure is -0.631 ± 0.24; as for TSEVNPQMLQDLQAAGFDEDMVIQLLQKTNNRSIEAAIEFISKM [A25L], -0.802 ± 0.057; as for TSEVNPQMLQDLQAAGFDEDMVIQNLQKTNNRSIEAAIEFISKM [A25N], -0.622 ± 0.13.

The values above are taken from the Human Domainome abundance scans (Beltran et al. 2025).
